Results from patent publication US20190367560A1.
Each block holds one molecule with its values, some of them ahead of it. Bridges are numbered along the chain shown (N, C = ends). Primed or numbered codes have the meaning given here. Where no end group is shown, it is not given here. [ ]: non-standard residue; d: D form. The star is where a group is joined. Biotin = O=C1N[C@H]2[C@H](CS[C@H]2CCCCC(=O)*)N1; Fmoc = O=C(OCC1c2ccccc2-c2ccccc21)*; PEG4′ = not defined here

What was measured:
[1] = target: human serum-derived γ-globulin (Wako) (human); experiment: dynamic binding capacity at 10% breakthrough; Protein A support; residence time 5 min
[2] = target: human serum-derived γ-globulin (Wako) (human); experiment: dynamic binding capacity at 10% breakthrough; Protein A support; residence time 2.5 min
[3] = target: human serum-derived γ-globulin (Wako) (human); experiment: dynamic binding capacity at 10% breakthrough; Protein A support; residence time 1 min
IgG [4] = experiment: SPR (BIAcore T200), equilibrium value
IgG [5] = experiment: SPR (BIAcore T200), 1:1 binding fit
IgG [6] = experiment: SPR as in Example 1 (BIAcore T200, IgG immobilized)
[7] = target: human serum-derived γ-globulin (Wako) (human); experiment: dynamic binding capacity at 10% breakthrough; 1 mg peptide on 1-mL column; residence time 2.5 min
[8] = target: human serum-derived γ-globulin (Wako) (human); experiment: dynamic binding capacity at 10% breakthrough; 10 mg peptide on 1-mL column; residence time 1 min
[9] = target: human serum-derived γ-globulin (Wako) (human); experiment: dynamic binding capacity at 10% breakthrough; 10 mg peptide on 1-mL column; residence time 5 min
[10] = target: human serum-derived γ-globulin (Wako) (human); experiment: dynamic binding capacity at 10% breakthrough; 1 mg peptide on 1-mL column; residence time 1 min
[11] = target: human serum-derived γ-globulin (Wako) (human); experiment: dynamic binding capacity at 10% breakthrough; 10 mg peptide on 1-mL column; residence time 2.5 min
[12] = target: human serum-derived γ-globulin (Wako) (human); experiment: DBC at 1 mL/min, 1 mg peptide column, after 0 cycles of 0.1 M NaOH washing
[13] = target: human serum-derived γ-globulin (Wako) (human); experiment: dynamic binding capacity at 10% breakthrough; 4 mg peptide on 1-mL column; residence time 2.5 min
[14] = target: human serum-derived γ-globulin (Wako) (human); experiment: dynamic binding capacity at 10% breakthrough; 4 mg peptide on 1-mL column; residence time 5 min
[15] = target: human serum-derived γ-globulin (Wako) (human); experiment: DBC at 1 mL/min, 1 mg peptide column, after 5 cycles of 0.1 M NaOH washing
[16] = target: human serum-derived γ-globulin (Wako) (human); experiment: dynamic binding capacity at 10% breakthrough; 4 mg peptide on 1-mL column; residence time 1 min
[17] = target: human serum-derived γ-globulin (Wako) (human); experiment: DBC at 1 mL/min, 1 mg peptide column, after 3 cycles of 0.1 M NaOH washing
[18] = target: human serum-derived γ-globulin (Wako) (human); experiment: DBC at 1 mL/min, 1 mg peptide column, after 1 cycle of 0.1 M NaOH washing
[19] = target: human serum-derived γ-globulin (Wako) (human); experiment: DBC at 1 mL/min, 1 mg peptide column, after 2 cycles of 0.1 M NaOH washing
[20] = target: human serum-derived γ-globulin (Wako) (human); experiment: DBC at 1 mL/min, 1 mg peptide column, after 4 cycles of 0.1 M NaOH washing
[21] = target: human serum-derived γ-globulin (Wako) (human); experiment: dynamic binding capacity at 10% breakthrough; 1 mg peptide on 1-mL column; residence time 5 min

Molecule: GPDCAYH(Xaa1)…-NH2 (SEQ ID NO:2, wherein Xaa1 is acetylated lysine), N-terminus blocked with biotinylated PEG4, intramolecular S-S bond (peptide)
Kd (IgG [4]): 2800 nM
Kd (IgG [5]): 2700 nM

Molecule: {Biotin-PEG4′}-GPDCAYHLGELVWCTFH-NH2 (disulfide 4-14 (inferred))
Kd (IgG [5]): 8.1 nM

Molecule: {Biotin-PEG4′}-GPDCAYHRGELVWCTFH-NH2 (disulfide 4-14 (inferred))
Kd (IgG [4]): 10 nM
Kd (IgG [5]): 9.1 nM

Molecule: {Biotin-PEG4′}-DCAYHRGELVWCT-NH2 (disulfide 2-12 (inferred))
Kd (IgG [4]): 64.5 nM
Kd (IgG [5]): 54 nM

Now from value to molecule:

DBC [1]: 43.7
DBC [2]: 24.3
DBC [3]: 10
Molecule: commercially available Protein A support MabSelect (GE Healthcare) (from UniProt P38507 37-327)

Kd (IgG [4]): 131 nM
Kd (IgG [5]): 156 nM
Molecule: GPDCAYH(Xaa1)…-NH2 (SEQ ID NO:2, wherein Xaa1 is lysine), N-terminus blocked with biotinylated PEG4, intramolecular S-S bond (peptide)

Kd (IgG [6]): 1000 nM
Molecule: {Fmoc-PEG4′}-GPDCAYHRGELVWCTFH-NH2 (linker 4-14 via thiocarbonyldiimidazole)

Kd (IgG [4]): 56 nM
Kd (IgG [5]): 42 nM
Molecule: {Biotin-PEG4′}-GPRCAYHRGELVWCSFH-NH2 (disulfide 4-14 (inferred))

DBC [7]: 3.4
DBC [8]: 23.1
DBC [9]: 31.4
DBC [10]: 2.3
DBC [11]: 29.5
DBC 10% [12]: 4.8 mg/mL
DBC 10% (% NaOH washing cycle 0) [12]: 100%
DBC [13]: 15.8
DBC [14]: 23.1
DBC 10% [15]: 4.7 mg/mL
DBC 10% (% NaOH washing cycle 0) [15]: 97.9%
DBC [16]: 12.1
DBC 10% [17]: 4.8 mg/mL
DBC 10% (% NaOH washing cycle 0) [17]: 100%
DBC 10% [18]: 4.8 mg/mL
DBC 10% (% NaOH washing cycle 0) [18]: 100%
DBC 10% [19]: 4.9 mg/mL
DBC 10% (% NaOH washing cycle 0) [19]: 102%
DBC 10% [20]: 4.8 mg/mL
DBC 10% (% NaOH washing cycle 0) [20]: 100%
DBC [21]: 7
Molecule: [PEG4′]GPDCAYHRGELVWCTFH-NH2 (linker 5-15 via 1,3‑dichloro‑2‑propanone)
